Test results from patent US20240245805A1 (Orna Therapeutics, Inc., priority 2020, published 2024).

B1: EV J 1631 (nucleic acid, listed as Enterovirus sp.)
chain: CACCCTGAGGGCCCACGTGGCGTAGTACTCTGGTATCAAGGTACCTTTGTACGCCTATTTTATTTCCCTTCCCCCACAGTAACTTAGAAGCTTATCTCATAGTTCAACAGTAGGGTCACTAACCAAGTGGCTCAGCGAACAAGCACTTCTGTTTCCCCGGTCCTAGTACCTGTGAAGCTGTACCCACGGCGGAAGGGGAAAAAGATCGTTATCCGGCCCCCTACTTCGGAAAGCCTAGTAACACCATTGAAGCAATCGAGTGTTGCGCTCAGCACAGTAACCCCTGTGTAGCTTTGGTTGATGAGTCTGGGCACTCCCCACTGGCGACAGCGGCCCAGGCTGCGTTGGCGGCCAACCGACTCGGGCAACCGGGTCGGACGCTCGTTTGTGGACATGGTGTGAAGAGCCTACTGAGCTAGAGGGTAGTCCTCCGGCCCCTGAATGCGGATAATCCTAACCCCGGAGCACCCACACTCAATCCAGAGTGCAGGATGTCGTAACGCGTAAGTCTGGGACGGAACCGACTACTTTGGGTGTCCGTGTTTCCTGTTTTACTTACTTTGGCTGCTTATGGTGACAATCTAGTGTTGTTACCATATAGCTATTGGATTGGCCATCCGGTGTTTTGAATTGTGTGTTTATACTAATTCTTTTACATATCACAGACAACCAAAT
modifications: lipid formulation
B2: Parabovirus C (nucleic acid)
DNA: GATGTATCCCCATCCCCCAGTGTGTATGCCATACTGCATAGCTCGCCTATGCCCTATGGATTCACAACCCTTTCATATACCCTCCCTACCCAACCCCGTAACCACATGCTTTACTCCGCTTGGGGTTTTGCGGCCCCATGTTGTGACGAAATGGCTACGCAATCAATGCGGCTAATGGGGCCTGCCGCTTTTAAGTGGCCCCAGTTAGAAGTTTATGCACACCCGCCCATTAGGAGGCCACCAGCCAGGTGGTCAGAGGGCAAGCACTTCTGTTTCCCCGGTGAAGTTTGATAAGCTGTGCCCACGGCTGAAGCAGACAGATCCGTTACCCGCCTCACTACTACGAGACGGCTAGTAGTGTGTAATATCCGAATTTCATTGATCCGGGTGTTCCCCCCACCCAGAAACGTGTGATGAGGAGCGGCACCCCTCCTATGGCAACATAGGGCCTCTCCTGCGCTGGCACACGGGCTCTATGAGCATGAAATCAGGAGAAAGTCACACGAAGACCTTATTGTGCTAGTGTTGATTCCTCCGCCCCCCTGAATGCGGCTAATCCCAACTCCGGAGCGCCCGCTGGCAAACCCGCCAGAAGAGCGTCGTAATGCGTAAGTCTGGAGCGGAACCGACTACTTTGGGTGTGGCGTGTTTCCTTTATTTCCTTTGTATTTGTAT
modifications: lipid formulation; Parabovirus C
B3: HRVC3 QPM (nucleic acid, listed as Rhinovirus sp.)
chain: TTAAAGCTGGATCATGGTTGTTCCCACCATGATTACCCACGCGGTGCAGTGGTCTTGTATTACGGTACATTTCCATACCAGTTTTATACACCCCACCCCGAAACTCATAGAAGTTTGTACACAATGACCAATAGGTGGTGGCCATCCAGGTCGCTAATGGTCAAGCACTTCTGTTTCCCCGGCACCCTTGTATACGCTTCACCCGAGGCGAAAAATGAGGTTGTCGTTATCCGCAAAGTGCCTACGAAAAGCCTAGTAACACTTTGAAAACCCATGGTTGGTCGCTCAGCTGTTTACCCAACAGTAGACCTGGCAGATGAGGCTAGACATTCCCCACCAGCGATGGTGGTCTAGCCTGCGTGGCTGCCTGCACACCCTGCCGGGTGTGAAGCCAGAAAGTGGACAAGGTGTGAAGAGCCTATTGTGCTCACTTTGAGTCCTCCGGCCCCTGAATGTGGCTAACCCTAACCCCGTAGCTGTTGCATGTAACCCAACATGTATGCAGTCGTAATGGGCAACTATGGGATGGGACCAACTACTTTGGGTGTCCGTGTTTCCTGTTTTACTTTTTCATTGCTTATGGTGACAATTGTATCTGATACACTTGTTACC
modifications: lipid formulation
B4: HRVA73 (nucleic acid, listed as Rhinovirus sp.)
chain: TTAAAACTGGGTTTGGGTTGTTCCCACCCAAACCACCCACGCGGTGTTGTACACTGTTATTCCGGTAACCTTGTACGCCAGTTTTATATCCCTTCCCCCCCTTGTAACTTAGAAGACATGCGAATCGACCAATAGCAGGCAATCAACCAGATTGTCACCGGTCAAGCACTTCTGTTTCCCCGGCTCTCGTTGATATGCTCCAACAGGGCAAAAACAATTGGAGTCGTTACCCGCAAGATGCCTACGCAAAACCTAGTAGCATCTTCGAAGATTTTTGGTTGGTCGCTCAGTTGCTACCCCAGCAATAGACCTGGCAGATGAGGCTAGAAATACCCCACTGGTGACAGTGTTCTAGCCTGCGTGGCTGCCTGCACACCCACACGGGTGTGAAGCCAAAGATTGGACAAGGTGTGAAGAGTCACGTGTGCTCATCTTGAGTCCTCCGGCCCCTGAATGCGGCTAACCTTAACCCCGTAGCCATTGCTCGCAATCCAGCGAGTATATGGTCGTAATGAGTAATTACGGGATGGGACCGACTACTTTGGGTGTCCGTGTTTCACTTTTTACTTATCAATTTGCTTATGGTGACAATATATATAGATATATATTGACACC
modifications: lipid formulation
B5: EV F1 BEV 261 (nucleic acid, listed as Enterovirus sp.)
chain: GCAATGCTGCACCAGTGCACTGGTACGCTAGTACCTTTTCACGGAGTAGATGGTATCCCTTACCCCGGAACCTAGAAGATTGCACACAAACCGACCAATAGGCGCACCGCATCCAGCCGTGCAGCGGTCAAGCACTTCTGTCTCCCCGGTCTGTAAAGATCGTTATCCGCCCGACCCACTACGAAAAGCCTAGTAACTGGCCAAGTGAACGCGAAGTTGCGCTCCGCCACAACCCCAGTGGTAGCTCTGGAAGATGGGGCTCGCACCACCCCCGTGGTAACACGGTTGCCTGCCCGCGTGTGCTTCCGGGTTCGGTCTCGTGCCGTTCACTTCAACTTCACGCAACCAGCCAAGAGCCTATTGTGCTGGGACGGTTTTCCTCCGGGGCCGTGAATGCTGCTAATCCCAACCTCCGAGCGTGTGCGCACAATCCAGTGTTGCTACGTCGTAACGCGTAAGTTGGAGGCGGAACAGACTACTTTCGGTACCCCGTGTTTCCTCTCATTTTATTTAATATTTTATGGTGACAATTGTTGAGATTTGCGCTCTTGCAACGTTGCCATTGAATATTGGCTTATACTATTTGGTTGCCTTTTACAAAACCTCTGATATACCCAGTTCTTACATTGATCTGCTTGTTTTTCTCAATTTGAAGTATAGACTACAAATAGCAAA
modifications: lipid formulation
B6: EV K (nucleic acid)
chain: TCAGCCTGACGCAAGTGCCTCCATTGGAGTCTCTCCAAGCCCTCCGGGGCTTGGAGGGCGCCGACCCCCTGCCTAGGGGGAGCCCACGACACGGCTGGAGTCCATTGGCACACCGCAGCCACGATTCAAGCCAGAATTGAAAGCGGGAAGCACTTCTGTCTCCCCGGTGTGGATCATACGCTGTACCCACGGCGAAAAGTGAAGCATCGTTACCCGACTCGGTACTTCGAGAAGCCCAGTACAGTTGTGGATCTCTGCAGGGTATACGCTCAGCGTGACCCCTACGTAGTTCCTTGAGATGGCTGAGAGAACACCCCACGGGCGACCGTGTCTCTCGGCGCGTGGCTCAAGGCCGGGCCTTCAGTGGCTCGGTGCCTTGCAGAGTGAAGCCTCCGAACAGCCTATTGAGCTACCGTTTAGCCTCCGCCCTCTTGAATGCGGCTAATCCTAACCATGGAGCGCCCGCCCACAGTCCAGTGGGTAGAGCGTCGTAACGCGCAAGTCCGTGGCGGAACCGACTACTTTAGAGTGGCGTGTTTCCAATTTATCCTTTATAAAGTTGCTTATGGTGACACCACAAGAGATCCACGATTTCTTGTTTCTTATCACTGAGACACAAGTCATATTCATCAATCTTTATTGCGGAATTAACTTGGTGCGTCCAAACACATCAGC
modifications: lipid formulation; Enterovirus K
B7: HRVB27 (nucleic acid, listed as Rhinovirus sp.)
chain: TTAAAACAGCGGATGGGTATCCCACCATCCGACCCACAGGGTGTAGTGCTCTGGTATTTTGTACCTTTGCACGCCTGTTTCCCCATTGTACCCCTCCTTAAATTTCCTCCCCAAGTAACGTTAGAAGTTTAAGGAAACAAATGTACAATAGGAAGCATCACATCCAGTGGTGTTATGTACAAGCACTTCTGTTTCCCCGGAGCGAGGTATAAGTGGTACCCACCGCCGAAAGCCTTTAACCGTTATCCGCCAATCAACTACGTAATGGCTAGTATTACCATGTTTGTGACTTGGTGTTCGATCAGGTGGTTCCCCCCACTAGTTTGGTCGATGAGGCTAGGAACTCCCCACGGGTGACCGTGTCCTAGCCTGCGTGGCGGCCAACCCAGCTTTTGCTGGGACGCCTTTTTACAGACATGGTGTGAAGACCTGCATGTGCTTGATTGTGAGTCCTCCGGCCCCTGAATGCGGCTAACCTTAACCCCGGAGCCTTGCAACATAATCCAATGTTGTTGAGGTCGTAATGAGTAATTCTGGGATGGGACCGACTACTTTGGGTGTCCGTGTTTCCTTTTATTCTTTATATTGTCTTATGGTCACAGCATATATAGCATATATACTGTGATC
modifications: lipid formulation
B8: Felipivirus 127F (nucleic acid, listed as Felipivirus sp.)
chain: GATGTCGGATGACGGCTGGCCACCGGGGAAAAACGGCAAATGTGCACCACCTCTGCAACCCACGCCGACCACGTTTAACCATGGCGTTAGTAGGAGTGGACCACTGCAGTGGGCTCTGGTGTGCGACAGTCAGTGGTAGAGTAGACAGTCCTGACTGGGCAATGGGACCGCGTTGCGTATCCCTAGGTGGCATCGAGATTCCTCTGCTACCCACCAGCGTGGACTCCTATGGGGGGGGCCCCATAGGCTAGGTCTATACTGCCTGATAGGGTCGCGGCTGGTCGACCACTGACTGTATAACCAGTTGTAACTCACT
B9: EV I (nucleic acid)
chain: TTAGTACTTTCTCACGGGGATAGTGGTATCCCTCCCTAGTAATTTAGAAGACTTGAAAAACCGACCAATAGGCACCTCGCATCCAGCGGGGTAAAGGTCAAGCACTTCTGTTTCCCCGGGTCGAGTAGCGATAGACTGTGCCCACGGTCGAAGGTGAAACAACCCGTTATCCGACTTTGTACTTCGGGAAGCCTAGTACCACCAAAGATTATGCTTGGGGTTTCGCTCAGCACGACCCTGGTGTAGATCAGGCCGATGGATCACCGCATTCCTCACAGGCGACTGTGGCGGTGGTCGCGTGGCAGCCTGCCGATGGGGCAACCCATCGGACGCCAAGCATATGACAGGGTGTGAAGAGCCTACTGAGCTACAAAGTATTCCTCCGGCCCCTGAATGCGGCTAATCCCAACCACGGAGCATTTGCTACCAAACCAGGTAGTGGAATGTCGTAACGGGTAACTCTGTGGCGGAACCGACTACTTTGGGTGTCCGTGTTTCCTTTTAATTTATCATTCTGTATATGGTGACAACTATAGTGCTATCTCGATTTGCATTACTATTGTTGAGATTAAAACTTTATTACATTGTTGCATTTTACCCTTTGAGTGAGTTTTCACCTGAACAGATTAATTTACTCATCCTGTTTATATATTACAAGCAGAAATACTTGCAAAG
modifications: lipid formulation; Enterovirus I

What follows are molecules tested on HEK293 cells. Details: circular RNA encoding Gluc with the listed IRES (UTR truncated to 675 nt) transfected into HEK293 cells; supernatant after 24 hours.
Format: cell-based, human
B1 was tested, and the “Expression (luminescence from secreted Gluc protein)” value (from here on “Expression”) was 9.88E+07. With B2 the “Expression” value was 1.83E+07. With B3 the “Expression” value was 1.64E+07. In the case of B4, the “Expression” value is reported as 1.08E+08. With B5 the “Expression” value was 1.12E+07. B6 was tested, and the “Expression” value was 7.52E+07. For B7, the “Expression” value was 2.04E+08. B8 was tested, and the “Expression” value was 8.92E+06. In the case of B9, the “Expression” value is reported as 1.31E+08.
